Earlier results as cited in article PMC4819957.

Biological target: Pex3 (Homo sapiens) (UniProt P56589)
UniProt P56589, sequence (P56589 whole entry): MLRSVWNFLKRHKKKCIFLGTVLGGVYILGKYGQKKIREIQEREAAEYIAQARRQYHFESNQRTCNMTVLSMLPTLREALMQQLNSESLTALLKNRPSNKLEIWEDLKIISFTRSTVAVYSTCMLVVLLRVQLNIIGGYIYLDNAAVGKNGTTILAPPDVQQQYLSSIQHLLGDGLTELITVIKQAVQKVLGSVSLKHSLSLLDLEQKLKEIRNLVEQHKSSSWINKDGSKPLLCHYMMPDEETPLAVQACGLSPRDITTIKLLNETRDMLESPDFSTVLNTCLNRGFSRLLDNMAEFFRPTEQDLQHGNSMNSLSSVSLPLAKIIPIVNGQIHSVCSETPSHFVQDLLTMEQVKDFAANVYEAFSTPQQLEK

Q: For Pex19 (from UniProt P40855), which Kd is on record?
A: Its Kd is under 10 nM.
